Experiment [1] addresses T1, MUC1-ED on Ad-GFP-infected airway epithelial cells (A549 cells; SAECs) (human, UniProt P15941 24-1255, endogenous sialylated glycans (alpha2,3- and alpha2,6-linked sialic acid)).
T1 construct: Endogenous MUC1 of human airway ECs; also called Ad-GFP-infected ECs
The experiment is described as follows: Alexa Fluor 594-flagellin binding to Ad-GFP-infected A549 cells, 40 min at 4 C, fluorometry, Scatchard transformation; receptor named by the filing as MUC1-ED.

Experiment [2] has as its target T2, MUC1-ED on Ad-NEU1-infected airway epithelial cells (A549 cells; SAECs), desialylated by overexpressed NEU1 (human, UniProt P15941 24-1255, glycans desialylated by overexpressed NEU1).
T2 construct: Endogenous MUC1 of human airway ECs that overexpress NEU1; also called Ad-NEU1-infected ECs
The experiment is described as follows: Scatchard transformation of Alexa Fluor 594-flagellin binding to A549 cells.

In experiment [3] the target is T2, MUC1-ED on Ad-NEU1-infected airway …. The experiment is described as follows: Alexa Fluor 594-flagellin binding to Ad-NEU1-infected A549 cells, 40 min at 4 C, fluorometry, Scatchard transformation; receptor named by the filing as MUC1-ED.

T2 sequence (P15941 24-1255 limits assumed): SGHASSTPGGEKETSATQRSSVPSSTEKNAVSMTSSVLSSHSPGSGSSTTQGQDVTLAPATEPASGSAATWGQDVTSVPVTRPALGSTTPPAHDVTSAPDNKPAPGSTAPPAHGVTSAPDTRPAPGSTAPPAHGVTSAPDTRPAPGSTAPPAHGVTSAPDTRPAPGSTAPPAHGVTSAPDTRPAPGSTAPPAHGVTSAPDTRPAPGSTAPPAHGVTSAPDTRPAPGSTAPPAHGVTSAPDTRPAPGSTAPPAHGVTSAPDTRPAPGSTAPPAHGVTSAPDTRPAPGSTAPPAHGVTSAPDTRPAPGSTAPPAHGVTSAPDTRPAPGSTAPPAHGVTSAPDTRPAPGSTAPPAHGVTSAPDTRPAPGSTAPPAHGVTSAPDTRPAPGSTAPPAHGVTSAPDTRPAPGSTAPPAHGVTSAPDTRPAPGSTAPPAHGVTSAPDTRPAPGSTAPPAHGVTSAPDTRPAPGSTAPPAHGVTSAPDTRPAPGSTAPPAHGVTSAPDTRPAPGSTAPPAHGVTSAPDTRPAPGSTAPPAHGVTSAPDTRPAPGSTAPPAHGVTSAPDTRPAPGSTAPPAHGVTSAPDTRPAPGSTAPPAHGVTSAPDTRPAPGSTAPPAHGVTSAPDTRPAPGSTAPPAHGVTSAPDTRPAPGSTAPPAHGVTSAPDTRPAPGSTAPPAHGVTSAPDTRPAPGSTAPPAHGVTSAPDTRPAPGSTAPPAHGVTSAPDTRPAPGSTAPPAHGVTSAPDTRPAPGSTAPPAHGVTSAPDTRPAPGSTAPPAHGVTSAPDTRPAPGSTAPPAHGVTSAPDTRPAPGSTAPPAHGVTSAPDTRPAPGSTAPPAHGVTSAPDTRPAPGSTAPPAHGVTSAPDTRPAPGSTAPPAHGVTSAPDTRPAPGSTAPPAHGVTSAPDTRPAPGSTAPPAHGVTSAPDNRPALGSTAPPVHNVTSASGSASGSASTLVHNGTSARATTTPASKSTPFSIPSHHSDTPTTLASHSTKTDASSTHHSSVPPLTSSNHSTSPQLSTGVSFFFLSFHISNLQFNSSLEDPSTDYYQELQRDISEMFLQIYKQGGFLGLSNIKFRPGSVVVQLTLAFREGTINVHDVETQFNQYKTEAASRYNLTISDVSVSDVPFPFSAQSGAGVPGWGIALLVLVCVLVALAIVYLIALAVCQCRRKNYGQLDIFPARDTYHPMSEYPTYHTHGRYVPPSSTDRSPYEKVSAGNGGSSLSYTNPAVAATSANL
T1 sequence (P15941 24-1255 limits assumed): as above

B1: Pseudomonas aeruginosa (Pa) flagellin purified from Pa strain PA01, Alexa Fluor 594-labeled (ligand)
chain: MALTVNTNIASLNTQRNLNASSNDLNTSLQRLTTGYRINSAKDDAAGLQISNRLSNQISGLNVATRNANDGISLAQTAEGALQQSTNILQRIRDLALQSANGSNSDADRAALQKEVAAQQAELTRISDTTTFGGRKLLDGSFGTTSFQVGSNAYETIDISLQNASASAIGSYQVGSNGAGTVASVAGTATASGIASGTVNLVGGGQVKNIAIAAGDSAKAIAEKMDGAIPNLSARARTVFTADVSGVTGGSLNFDVTVGSNTVSLAGVTSTQDLADQLNSNSSKLGITASINDKGVLTITSATGENVKFGAQTGTATAGQVAVKVQGSDGKFEAAAKNVVAAGTAATTTIVTGYVQLNSPTAYSVSGTGTQASQVFGNASAAQKSSVASVDISTADGAQNAIAVVDNALAAIDAQRADLGAVQNRFKNTIDNLTNISENATNARSRIKDTDFAAETAALSKNQVLQQAGTAILAQANQLPQAVLSLLR
modifications: Alexa Fluor 594 label (site not stated)
notes: also called purified flagellin; Alexa Fluor 594-flagellin
Consider B1, for which the Kd in experiment [1] is 7.35 nM; in experiment [3], 2.54 nM. Moreover, the “fold reduction in Kd against Ad-GFP-infected ECs” value in experiment [2] was found to be 2.9 fold.

For the origin of these results see US20170319655A1 (UNIVERSITY OF MARYLAND BALTIMORE, published 2017).
